Experiments:
[1] = molecular target: T1, human RANKL (human, UniProt O14788 140-317, limits assumed); experiment: AlphaScreen competition against the human RANKL / human RANK-Fc interaction
T1 sequence (looked up): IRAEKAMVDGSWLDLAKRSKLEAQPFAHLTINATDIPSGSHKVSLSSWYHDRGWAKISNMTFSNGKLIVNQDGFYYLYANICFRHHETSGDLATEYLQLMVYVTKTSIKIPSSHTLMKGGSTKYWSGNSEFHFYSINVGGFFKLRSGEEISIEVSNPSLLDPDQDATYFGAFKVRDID
Description: (§1) Finally, streptavidin coated donor beads (20 ug/ml) were added. After 1 hour of incubation plates were read on the Envison Alphascreen reader (PerkinElmer). All experiments were performed in duplicate.

[2] = molecular target: T1, human RANKL; experiment: AlphaScreen competition: Nanobody titrated against the interaction of human RANKL (1 nM) with biotinylated human RANK-Fc (3 nM); acceptor beads with anti-RANKL MAb BN-12, streptavidin donor beads
Description: as §1

[3] = molecular target: T2, A1 domain of vWF (UniProt P04275 1261-1468, limits assumed); experiment: SPR (BIAcore), vWF A1 domain on sensor-chip
T2 construct: domain: A1 domain; also called vWF A1 domain
Description: (§2) The kinetic constants, kₒₙ and koff, were deduced from the obtained sensorgrams and used to calculate the equilibrium dissociation constant, KD. […] For these experiments, the samples were diluted to a 2 nM concentration. The initial binding rate was determined from the association phase of the sensorgram by linear fitting of the data points obtained between 5 and 25 seconds after the injection start and the reported value is the average of 5 independent measurements.

[4] = molecular target: T2, A1 domain of vWF; experiment: BIAcore initial binding rate, vWF A1 domain on sensor-chip, stored sample
Description: as §2

[5] = molecular target: T2, A1 domain of vWF; experiment: SPR (BIAcore), immobilized vWF A1 domain; M34A mutant
Description: as §2

[6] = molecular target: T2, A1 domain of vWF; experiment: SPR (Biacore), A1 domain of VWF
[7] = molecular target: T2, A1 domain of vWF; experiment: SPR (BIAcore), immobilized vWF A1 domain; M83A mutant
Description: as §2

[8] = molecular target: T2, A1 domain of vWF; experiment: SPR (BIAcore), immobilized vWF A1 domain; M78A mutant
Description: as §2

[9] = molecular target: T2, A1 domain of vWF; experiment: SPR (BIAcore), vWF A1 domain on sensor-chip; remark: listed apart in the source
Description: as §2

[10] = molecular target: T2, A1 domain of vWF; experiment: PLA potency assay (Biacore) on RPC fraction, first experiment
Description: (§3) To determine the potency (i.e. looking at affinity measurements) of the −18Da product related variant, post-peak 1 was collected during RP-HPLC separation and directly measured in the PLA potency assay. Similar to what was done for pre-peak 1, the elution fraction representing post-peak 1 was first dried using a speedvac (miVac Duo Concentrator, Genevac) and then re-solubilized in PBS. […] Three independent but slightly different experiments were performed. In a first experiment the concentration after reconstitution was determined spectrophotometrically and no Tween was added to the PBS. In a second experiment, 0.02% Tween was present in the PBS at the time of reconstitution of the dried material (to prevent loss of protein from the relatively dilute samples) and the concentration was deduced from the peak area in a re-analysis by RP-HPLC. The RPC re-analysis also confirmed the identity of the isolated material. In a third experiment, we additionally diluted the purified main peak material to about the same concentration as the post-peak variant so to eliminate as much as possible any dissimilarities between the main and the post-peak samples. […]

[11] = molecular target: T2, A1 domain of vWF; experiment: PLA potency assay (Biacore) on RPC fraction, second experiment
Description: as §3

[12] = molecular target: T2, A1 domain of vWF; experiment: Biacore potency assay

B1: RANKL-1_D62E (VHH)
VHH: EVQLVESGGGLVQPGGSLRLSCAASGFTFSSYPMGWFRQAPGKGREFVSSITGSGGSTYYAESVKGRFTISRDNAKNTLYLQMNSLRPEDTAVYYCAAYIRPDTYLSRDYRKYDYWGQGTLVTVSS
notes: Expressed from pAX054 in the periplasm of E. coli; not shown: C-terminal c-myc tag and (His)6 tag coded by vector pAX054
IC50 (read off the curve) [1]: ~100 pM

B2: RANKL-1 (VHH)
VHH: EVQLVESGGGLVQPGGSLRLSCAASGFTFSSYPMGWFRQAPGKGREFVSSITGSGGSTYYADSVKGRFTISRDNAKNTLYLQMNSLRPEDTAVYYCAAYIRPDTYLSRDYRKYDYWGQGTLVTVSS
notes: as for B1
IC50 (read off the curve) [1]: ~100 pM
IC50 [2]: 0.114 nM

B3: SEQ ID NO: 2 D62A (VHH)
VHH: EVQLVESGGGLVQPGGSLRLSCAASGRTFSYNPMGWFRQAPGKGRELVAAISRTGGSTYYPASVEGRFTISRDNAKRMVYLQMNSLRAEDTAVYYCAAAGVRAEDGRVRTLPSEYTFWGQGTQVTVSS
Kd [3]: 1 nM
% activity after 4 wks at 37° C. (initial binding rate against time zero) [4]: 88.4%
% activity after 8 wks at 37° C. (initial binding rate against time zero) [4]: 87.4%

B4: SEQ ID NO: 2 D62E (VHH)
VHH: EVQLVESGGGLVQPGGSLRLSCAASGRTFSYNPMGWFRQAPGKGRELVAAISRTGGSTYYPESVEGRFTISRDNAKRMVYLQMNSLRAEDTAVYYCAAAGVRAEDGRVRTLPSEYTFWGQGTQVTVSS
Kd [3]: 1.3 nM
% activity after 4 wks at 37° C. (initial binding rate against time zero) [4]: 89.6%
% activity after 8 wks at 37° C. (initial binding rate against time zero) [4]: 80.2%

B5: SEQ ID NO: 2 M34A (VHH)
VHH: EVQLVESGGGLVQPGGSLRLSCAASGRTFSYNPAGWFRQAPGKGRELVAAISRTGGSTYYPDSVEGRFTISRDNAKRMVYLQMNSLRAEDTAVYYCAAAGVRAEDGRVRTLPSEYTFWGQGTQVTVSS
Kd [5]: 1.96 nM

B6: Stab. 12A2H1; SEQ ID NO: 2 with E1D, D62E, M78T, D105Q (VHH)
VHH: DVQLVESGGGLVQPGGSLRLSCAASGRTFSYNPMGWFRQAPGKGRELVAAISRTGGSTYYPESVEGRFTISRDNAKRTVYLQMNSLRAEDTAVYYCAAAGVRAEQGRVRTLPSEYTFWGQGTQVTVSS
notes: also called 12A2H1 SV1; 12A2h1SV1
Kd [6]: 0.986 nM
koff [6]: 0.0207 s⁻¹
kon [6]: 2.1e+07 M⁻¹ s⁻¹

B7: SEQ ID NO: 2 M83A (VHH)
VHH: EVQLVESGGGLVQPGGSLRLSCAASGRTFSYNPMGWFRQAPGKGRELVAAISRTGGSTYYPDSVEGRFTISRDNAKRMVYLQANSLRAEDTAVYYCAAAGVRAEDGRVRTLPSEYTFWGQGTQVTVSS
Kd [7]: 1.29 nM

B8: SEQ ID NO: 2 D105N (VHH)
VHH: EVQLVESGGGLVQPGGSLRLSCAASGRTFSYNPMGWFRQAPGKGRELVAAISRTGGSTYYPDSVEGRFTISRDNAKRMVYLQMNSLRAEDTAVYYCAAAGVRAENGRVRTLPSEYTFWGQGTQVTVSS
Kd [3]: 0.8 nM
% activity after 4 wks at 37° C. (initial binding rate against time zero) [4]: 29.5%
% activity after 8 wks at 37° C. (initial binding rate against time zero) [4]: 32.7%

B9: SEQ ID NO: 2 M78A (VHH)
VHH: EVQLVESGGGLVQPGGSLRLSCAASGRTFSYNPMGWFRQAPGKGRELVAAISRTGGSTYYPDSVEGRFTISRDNAKRAVYLQMNSLRAEDTAVYYCAAAGVRAEDGRVRTLPSEYTFWGQGTQVTVSS
Kd [8]: 1.46 nM

B10: SEQ ID NO: 2 D105E (VHH)
VHH: EVQLVESGGGLVQPGGSLRLSCAASGRTFSYNPMGWFRQAPGKGRELVAAISRTGGSTYYPDSVEGRFTISRDNAKRMVYLQMNSLRAEDTAVYYCAAAGVRAEEGRVRTLPSEYTFWGQGTQVTVSS
Kd [3]: 4.4 nM
% activity after 8 wks at 37° C. (initial binding rate against time zero) [4]: 98.8%

B11: SEQ ID NO: 2 D105T (VHH)
VHH: EVQLVESGGGLVQPGGSLRLSCAASGRTFSYNPMGWFRQAPGKGRELVAAISRTGGSTYYPDSVEGRFTISRDNAKRMVYLQMNSLRAEDTAVYYCAAAGVRAETGRVRTLPSEYTFWGQGTQVTVSS
Kd [3]: 7.2 nM
% activity after 4 wks at 37° C. (initial binding rate against time zero) [4]: 101%
% activity after 8 wks at 37° C. (initial binding rate against time zero) [4]: 96%

B12: SEQ ID NO: 2 D105Q (VHH)
VHH: EVQLVESGGGLVQPGGSLRLSCAASGRTFSYNPMGWFRQAPGKGRELVAAISRTGGSTYYPDSVEGRFTISRDNAKRMVYLQMNSLRAEDTAVYYCAAAGVRAEQGRVRTLPSEYTFWGQGTQVTVSS
Kd [3]: 1.1 nM
% activity after 4 wks at 37° C. (initial binding rate against time zero) [4]: 97.6%
% activity after 8 wks at 37° C. (initial binding rate against time zero) [4]: 90.8%

B13: SEQ ID NO: 2 S63G (VHH)
VHH: EVQLVESGGGLVQPGGSLRLSCAASGRTFSYNPMGWFRQAPGKGRELVAAISRTGGSTYYPDGVEGRFTISRDNAKRMVYLQMNSLRAEDTAVYYCAAAGVRAEDGRVRTLPSEYTFWGQGTQVTVSS
Kd [3]: 1.2 nM
% activity after 4 wks at 37° C. (initial binding rate against time zero) [4]: 95.5%
% activity after 8 wks at 37° C. (initial binding rate against time zero) [4]: 83.8%

B14: SEQ ID NO: 2 D105A (VHH)
VHH: EVQLVESGGGLVQPGGSLRLSCAASGRTFSYNPMGWFRQAPGKGRELVAAISRTGGSTYYPDSVEGRFTISRDNAKRMVYLQMNSLRAEDTAVYYCAAAGVRAEAGRVRTLPSEYTFWGQGTQVTVSS
fold drop in affinity against wild type SEQ ID NO: 2 [9]: 10 fold
Kd [3]: 9.3 nM
% activity after 8 wks at 37° C. (initial binding rate against time zero) [4]: 98.7%

B15: SEQ ID NO: 2 D105S (VHH)
VHH: EVQLVESGGGLVQPGGSLRLSCAASGRTFSYNPMGWFRQAPGKGRELVAAISRTGGSTYYPDSVEGRFTISRDNAKRMVYLQMNSLRAEDTAVYYCAAAGVRAESGRVRTLPSEYTFWGQGTQVTVSS
Kd [3]: 3.7 nM
% activity after 4 wks at 37° C. (initial binding rate against time zero) [4]: 93.7%
% activity after 8 wks at 37° C. (initial binding rate against time zero) [4]: 94.2%

B16: SEQ ID NO: 1, ALX-0081 (VHH)
chain: EVQLVESGGGLVQPGGSLRLSCAASGRTFSYNPMGWFRQAPGKGRELVAAISRTGGSTYYPDSVEGRFTISRDNAKRMVYLQMNSLRAEDTAVYYCAAAGVRAEDGRVRTLPSEYTFWGQGTQVTVSSAAAEVQLVESGGGLVQPGGSLRLSCAASGRTFSYNPMGWFRQAPGKGRELVAAISRTGGSTYYPDSVEGRFTISRDNAKRMVYLQMNSLRAEDTAVYYCAAAGVRAEDGRVRTLPSEYTFWGQGTQVTVSS
notes: Produced in E. coli; also called BATCH 1; RPC main peak
potency relative to reference SEQ ID NO:1 [10]: 91.9%
potency relative to reference SEQ ID NO:1 [11]: 50%

B17: SEQ ID NO: 1 RPC post-peak 1 (single norleucine mis-incorporation, -18 Da) (VHH)
chain: EVQLVESGGGLVQPGGSLRLSCAASGRTFSYNPMGWFRQAPGKGRELVAAISRTGGSTYYPDSVEGRFTISRDNAKRMVYLQMNSLRAEDTAVYYCAAAGVRAEDGRVRTLPSEYTFWGQGTQVTVSSAAAEVQLVESGGGLVQPGGSLRLSCAASGRTFSYNPMGWFRQAPGKGRELVAAISRTGGSTYYPDSVEGRFTISRDNAKRMVYLQMNSLRAEDTAVYYCAAAGVRAEDGRVRTLPSEYTFWGQGTQVTVSS
modifications: norleucine in place of one methionine (site not determined), -18 Da
notes: Collected from RP-HPLC and reconstituted before the potency assay; also called -18Da product related variant
potency relative to reference SEQ ID NO:1 [10]: 51.6%
potency relative to reference SEQ ID NO:1 [11]: 81%

B18: SEQ ID NO: 1 E1Q, fraction E1Q-a (cyclized pyroglutamate form) (VHH)
chain: QVQLVESGGGLVQPGGSLRLSCAASGRTFSYNPMGWFRQAPGKGRELVAAISRTGGSTYYPDSVEGRFTISRDNAKRMVYLQMNSLRAEDTAVYYCAAAGVRAEDGRVRTLPSEYTFWGQGTQVTVSSAAAEVQLVESGGGLVQPGGSLRLSCAASGRTFSYNPMGWFRQAPGKGRELVAAISRTGGSTYYPDSVEGRFTISRDNAKRMVYLQMNSLRAEDTAVYYCAAAGVRAEDGRVRTLPSEYTFWGQGTQVTVSS
modifications: N-terminal pyroglutamate (cyclized Q1)
notes: Fraction of the E1Q mutant from a monoS column; mass 27857 Da
potency relative to BATCH 1 (average) [12]: 105%

— patent US20110183861A1 (ABLYNN N V, published 2011)
